From paper doi:10.1101/2025.06.17.660062 (bioRxiv, 2025) come the findings set out here.

Experiment [1] addresses mCherry-RZZ (ROD-Zwilch-ZW10 complex, wild type) (UniProt P50748 1-2209; Q9H900 1-591; O43264 1-779). Description: SEC.
Experiment [2] concerns the target R^EEZZ (RZZ with phosphomimetic ROD T13E-S15E) (UniProt P50748 1-2209; Q9H900 1-591; O43264 1-779, T13E | S15E). Description: pull-down.

Chain of mCherry-RZZ (ROD-Zwilch-ZW10 complex, wild type) (P50748 whole entry, chain 1 of 3): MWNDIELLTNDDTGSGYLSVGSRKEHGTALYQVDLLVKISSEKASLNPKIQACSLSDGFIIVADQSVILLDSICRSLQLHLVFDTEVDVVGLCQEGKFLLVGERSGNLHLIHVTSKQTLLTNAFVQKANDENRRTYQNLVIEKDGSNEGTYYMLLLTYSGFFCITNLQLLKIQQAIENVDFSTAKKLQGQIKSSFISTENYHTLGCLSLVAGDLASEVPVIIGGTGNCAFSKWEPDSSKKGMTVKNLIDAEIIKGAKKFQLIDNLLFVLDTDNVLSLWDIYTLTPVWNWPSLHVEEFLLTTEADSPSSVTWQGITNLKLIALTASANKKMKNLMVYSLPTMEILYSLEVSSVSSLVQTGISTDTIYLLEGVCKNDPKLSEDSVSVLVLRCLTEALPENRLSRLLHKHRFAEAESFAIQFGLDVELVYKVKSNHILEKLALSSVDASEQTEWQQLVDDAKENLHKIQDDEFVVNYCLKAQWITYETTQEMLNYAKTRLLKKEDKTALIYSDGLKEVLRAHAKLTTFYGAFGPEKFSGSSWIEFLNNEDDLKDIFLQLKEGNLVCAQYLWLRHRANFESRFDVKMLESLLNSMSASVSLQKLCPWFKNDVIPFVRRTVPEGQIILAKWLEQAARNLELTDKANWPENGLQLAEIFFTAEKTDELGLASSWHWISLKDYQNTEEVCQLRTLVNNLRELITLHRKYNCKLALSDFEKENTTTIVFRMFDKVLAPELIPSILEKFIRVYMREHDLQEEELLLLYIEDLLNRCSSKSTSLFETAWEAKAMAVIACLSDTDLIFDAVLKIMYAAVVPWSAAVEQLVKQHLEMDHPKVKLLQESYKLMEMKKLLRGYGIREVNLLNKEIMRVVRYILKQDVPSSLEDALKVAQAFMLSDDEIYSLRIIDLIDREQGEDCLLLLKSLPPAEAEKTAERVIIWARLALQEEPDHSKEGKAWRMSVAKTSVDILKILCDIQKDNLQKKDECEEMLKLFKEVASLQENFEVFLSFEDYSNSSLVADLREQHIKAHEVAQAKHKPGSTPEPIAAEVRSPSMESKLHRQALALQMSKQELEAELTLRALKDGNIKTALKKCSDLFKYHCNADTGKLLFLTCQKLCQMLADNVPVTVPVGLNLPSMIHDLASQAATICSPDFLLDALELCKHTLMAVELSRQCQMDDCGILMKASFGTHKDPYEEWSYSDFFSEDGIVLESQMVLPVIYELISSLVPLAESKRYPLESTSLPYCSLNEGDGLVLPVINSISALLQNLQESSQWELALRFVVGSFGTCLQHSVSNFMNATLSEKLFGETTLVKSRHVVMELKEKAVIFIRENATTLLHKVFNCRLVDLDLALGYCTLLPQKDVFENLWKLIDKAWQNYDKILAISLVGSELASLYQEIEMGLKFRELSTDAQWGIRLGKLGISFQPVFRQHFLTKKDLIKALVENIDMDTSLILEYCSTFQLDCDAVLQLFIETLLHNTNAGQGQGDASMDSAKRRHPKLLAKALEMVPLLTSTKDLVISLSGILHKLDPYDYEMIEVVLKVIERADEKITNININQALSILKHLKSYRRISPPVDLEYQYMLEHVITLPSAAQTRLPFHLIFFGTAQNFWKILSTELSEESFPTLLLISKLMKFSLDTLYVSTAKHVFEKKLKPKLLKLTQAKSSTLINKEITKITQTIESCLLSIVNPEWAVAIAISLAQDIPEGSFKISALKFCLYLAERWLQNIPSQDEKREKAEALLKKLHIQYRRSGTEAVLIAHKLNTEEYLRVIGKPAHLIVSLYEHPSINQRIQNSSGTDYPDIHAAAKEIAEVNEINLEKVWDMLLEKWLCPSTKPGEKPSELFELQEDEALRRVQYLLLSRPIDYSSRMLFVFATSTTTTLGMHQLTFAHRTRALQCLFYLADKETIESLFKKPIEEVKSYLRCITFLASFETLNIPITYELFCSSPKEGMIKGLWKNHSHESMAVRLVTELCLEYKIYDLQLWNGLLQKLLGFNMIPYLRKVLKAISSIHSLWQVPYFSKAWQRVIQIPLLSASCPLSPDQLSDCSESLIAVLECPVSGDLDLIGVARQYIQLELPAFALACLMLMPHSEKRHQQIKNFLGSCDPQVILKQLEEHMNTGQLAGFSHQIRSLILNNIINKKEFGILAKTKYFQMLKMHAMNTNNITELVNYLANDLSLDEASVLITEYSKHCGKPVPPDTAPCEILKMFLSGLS
Chain of mCherry-RZZ (ROD-Zwilch-ZW10 complex, wild type) (Q9H900 whole entry, chain 2 of 3): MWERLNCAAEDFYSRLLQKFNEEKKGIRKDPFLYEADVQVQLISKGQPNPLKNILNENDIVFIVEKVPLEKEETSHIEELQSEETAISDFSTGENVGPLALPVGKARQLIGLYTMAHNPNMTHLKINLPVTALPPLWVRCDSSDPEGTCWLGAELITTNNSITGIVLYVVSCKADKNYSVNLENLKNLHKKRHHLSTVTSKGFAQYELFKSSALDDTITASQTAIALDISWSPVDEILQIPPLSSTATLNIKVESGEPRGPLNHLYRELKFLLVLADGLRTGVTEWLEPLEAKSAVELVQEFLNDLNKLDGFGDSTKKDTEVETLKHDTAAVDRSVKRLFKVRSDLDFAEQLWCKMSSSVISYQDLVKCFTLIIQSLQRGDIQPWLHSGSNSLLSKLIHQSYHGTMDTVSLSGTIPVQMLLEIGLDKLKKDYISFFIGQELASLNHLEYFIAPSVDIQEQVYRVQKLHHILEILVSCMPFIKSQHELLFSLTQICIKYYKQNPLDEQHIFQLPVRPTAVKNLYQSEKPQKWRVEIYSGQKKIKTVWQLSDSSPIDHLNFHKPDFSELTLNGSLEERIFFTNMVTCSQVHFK
Chain of mCherry-RZZ (ROD-Zwilch-ZW10 complex, wild type) (O43264 whole entry, chain 3 of 3): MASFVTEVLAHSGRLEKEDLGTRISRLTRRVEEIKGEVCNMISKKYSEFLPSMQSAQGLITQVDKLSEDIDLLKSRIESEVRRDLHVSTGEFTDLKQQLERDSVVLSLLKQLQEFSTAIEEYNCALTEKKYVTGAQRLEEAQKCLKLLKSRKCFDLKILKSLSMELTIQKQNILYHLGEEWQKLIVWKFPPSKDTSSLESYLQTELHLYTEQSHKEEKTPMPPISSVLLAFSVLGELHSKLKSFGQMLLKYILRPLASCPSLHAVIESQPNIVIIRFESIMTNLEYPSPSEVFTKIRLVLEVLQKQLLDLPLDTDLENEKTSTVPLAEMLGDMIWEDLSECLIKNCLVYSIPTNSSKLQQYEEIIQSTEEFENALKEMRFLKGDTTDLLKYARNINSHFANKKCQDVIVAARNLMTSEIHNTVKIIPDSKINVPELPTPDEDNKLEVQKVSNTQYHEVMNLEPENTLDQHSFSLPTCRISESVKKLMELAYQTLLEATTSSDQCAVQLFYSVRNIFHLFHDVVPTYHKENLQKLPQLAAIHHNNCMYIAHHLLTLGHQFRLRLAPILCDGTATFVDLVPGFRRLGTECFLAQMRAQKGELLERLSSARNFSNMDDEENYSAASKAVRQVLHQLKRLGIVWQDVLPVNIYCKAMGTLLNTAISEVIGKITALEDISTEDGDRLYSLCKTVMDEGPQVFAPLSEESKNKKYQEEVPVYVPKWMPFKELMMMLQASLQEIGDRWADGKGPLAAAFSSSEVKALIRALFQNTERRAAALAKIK
Chain of R^EEZZ (RZZ with phosphomimetic ROD T13E-S15E) (P50748 whole entry T13E/S15E, chain 1 of 3): as the sequence (P50748 whole entry, chain 1 of 3) above, with T13E, S15E counted along it
Chain of R^EEZZ (RZZ with phosphomimetic ROD T13E-S15E) (Q9H900 whole entry, chain 2 of 3): as the sequence (Q9H900 whole entry, chain 2 of 3) above
Chain of R^EEZZ (RZZ with phosphomimetic ROD T13E-S15E) (O43264 whole entry, chain 3 of 3): as the sequence (O43264 whole entry, chain 3 of 3) above

B1: GST-BUB1^467-521 (domain or fragment, UniProt O43683 467-521, looked up)
chain: ALGFIMNMFQAPTLPDISDDKDEWQSLDQNEDAFEAQFQKNVRSSGAWGVNKIIS
With B1, the binding result in experiment [1] and in experiment [2] was “binds” each time.
